Source: patent US20190127434

Target: K6UbKMRC011

Protein | cleavage by ubiquitin cleavage enzymes, SDS-PAGE analysis (10 mg/L enzyme, 37 C, 12 hours)
UCH-L3, human recombinant (protein) MEGQRWLPLEANPEVTNQFLKQLGLHPNWQFVDVYGMDPELLSMVPRPVCAVLLLFPITEKYEVFRTEEEEKIKSQGQDVTSSVYFMKQTISNACGTIGLIHAIANNKDKMHFESGSTLKKFLEESVSMSPEERARYLENYDAIRVTHETSAHEGQTEAPSIDEKVDLHFIALVHVDGHLYELDGRKPFPINHGETSDETLLEDAIEVCKKFMERDPDELRFNAIALSAA | the refolded K6UbKMRC011 was cleaved by the ubiquitin cleavage enzymes shown in Table 2 and correctly separated into K6Ub and KMRC011
Recombinant Human USP2 Catalytic Domain (protein) NSKSAQGLAGLRNLGNTCFMNSILQCLSNTRELRDYCLQRLYMRDLHHGSNAHTALVEEFAKLIQTIWTSSPNDVVSPSEFKTQIQRYAPRFVGYNQQDAQEFLRFLLDGLHNEVNRVTLRPKSNPENLDHLPDDEKGRQMWRKYLEREDSRIGDLFVGQLKSSLTCTDCGYCSTVFDPFWDLSLPIAKRGYPEVTLMDCMRLFTKEDVLDGDEKPTCCRCRGRKRCIKKFSIQRFPKILVLHLKRFSESRIRTSKLTTFVNFPLRDLDLREFASENTNHAVYNLYAVSNHSGTTMGGHYTAYCRSPGTGEWHTFNDSSVTPMSSSQVRTSDAYLLFYELASPPSRM | the refolded K6UbKMRC011 was cleaved by the ubiquitin cleavage enzymes shown in Table 2 and correctly separated into K6Ub and KMRC011
Recombinant Human UCH-L5/UCH37 (protein) MTGNAGEWCLMESDPGVFTELIKGFGCRGAQVEEIWSLEPENFEKLKPVHGLIFLFKWQPGEEPAGSVVQDSRLDTIFFAKQVINNACATQAIVSVLLNCTHQDVHLGETLSEFKEFSQSFDAAMKGLALSNSDVIRQVHNSFARQQMFEFDTKTSAKEEDAFHFVSYVPVNGRLYELDGLREGPIDLGACNQDDWISAVRPVIEKRIQKYSEGEIRFNLMAIVSDRKMIYEQKIAELQRQLAEEEPMDTDQGNSMLSAIQSEVAKNQMLIEEEVQKLKRYKIENIRRKHNYLPFIMELLKTLAEHQQLIPLVEKAKEKQNAKKAQETK | the refolded K6UbKMRC011 was cleaved by the ubiquitin cleavage enzymes shown in Table 2 and correctly separated into K6Ub and KMRC011
